Data set [1] concerns the target T1, Mlh1-Pms1 (Saccharomyces cerevisiae (yeast), UniProt P38920;P14242 1-769;1-873). The data set can be described thus: EMSA; 120 mM NaCl, no ATP; 20 mM HEPES-KOH (pH not given), 0.1 mM DTT, 2 mM MgCl2, 40 ug/mL BSA, 6% glycerol; plasmid DNA 3.8 nM, 10 min room temperature, agarose EMSA; oligonucleotides plus 120 mM NaCl, 10 min 4 C, 4% PAGE. The note with it: protein: recombinant, copies: 1;1, label: 5'-32P on CMO169. In general terms: A gel shift assay detects complexes by their altered migration in electrophoresis.

For data set [2], the target named is T1, Mlh1-Pms1. The data set can be described thus: EMSA; 120 mM NaCl, 0.5 mM ATP; 20 mM HEPES-KOH (pH not given), 0.1 mM DTT, 2 mM MgCl2, 40 ug/mL BSA, 6% glycerol; plasmid DNA 3.8 nM, 10 min room temperature, agarose EMSA; oligonucleotides plus 120 mM NaCl, 10 min 4 C, 4% PAGE. Conditions: protein: recombinant, copies: 1;1, label: 5'-32P on CMO169.
Where [3] appears, read: nicked duplex, blunt ends, 1:2 1:3, nick between strands 2 and 3.

T1 sequence (P38920 whole entry, chain 1 of 2): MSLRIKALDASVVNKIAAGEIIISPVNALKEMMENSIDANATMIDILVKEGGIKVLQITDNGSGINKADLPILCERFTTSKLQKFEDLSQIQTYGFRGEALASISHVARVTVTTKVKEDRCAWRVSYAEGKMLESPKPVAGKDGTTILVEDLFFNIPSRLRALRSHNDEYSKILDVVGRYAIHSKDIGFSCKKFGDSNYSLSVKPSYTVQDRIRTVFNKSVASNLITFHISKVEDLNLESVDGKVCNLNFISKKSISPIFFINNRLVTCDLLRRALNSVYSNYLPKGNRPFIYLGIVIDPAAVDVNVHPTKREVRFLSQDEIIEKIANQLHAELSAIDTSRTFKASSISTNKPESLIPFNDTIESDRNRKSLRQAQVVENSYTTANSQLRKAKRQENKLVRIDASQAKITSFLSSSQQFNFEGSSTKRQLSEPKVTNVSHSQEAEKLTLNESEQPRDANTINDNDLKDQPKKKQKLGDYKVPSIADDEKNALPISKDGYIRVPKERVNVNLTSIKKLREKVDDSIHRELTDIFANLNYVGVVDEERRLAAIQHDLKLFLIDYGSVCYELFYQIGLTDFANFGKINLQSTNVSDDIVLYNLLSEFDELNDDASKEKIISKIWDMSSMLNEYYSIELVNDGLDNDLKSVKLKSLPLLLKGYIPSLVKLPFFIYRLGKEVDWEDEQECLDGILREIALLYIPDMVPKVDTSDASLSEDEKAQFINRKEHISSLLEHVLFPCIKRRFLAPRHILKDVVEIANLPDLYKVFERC
T1 sequence (P14242 whole entry, chain 2 of 2): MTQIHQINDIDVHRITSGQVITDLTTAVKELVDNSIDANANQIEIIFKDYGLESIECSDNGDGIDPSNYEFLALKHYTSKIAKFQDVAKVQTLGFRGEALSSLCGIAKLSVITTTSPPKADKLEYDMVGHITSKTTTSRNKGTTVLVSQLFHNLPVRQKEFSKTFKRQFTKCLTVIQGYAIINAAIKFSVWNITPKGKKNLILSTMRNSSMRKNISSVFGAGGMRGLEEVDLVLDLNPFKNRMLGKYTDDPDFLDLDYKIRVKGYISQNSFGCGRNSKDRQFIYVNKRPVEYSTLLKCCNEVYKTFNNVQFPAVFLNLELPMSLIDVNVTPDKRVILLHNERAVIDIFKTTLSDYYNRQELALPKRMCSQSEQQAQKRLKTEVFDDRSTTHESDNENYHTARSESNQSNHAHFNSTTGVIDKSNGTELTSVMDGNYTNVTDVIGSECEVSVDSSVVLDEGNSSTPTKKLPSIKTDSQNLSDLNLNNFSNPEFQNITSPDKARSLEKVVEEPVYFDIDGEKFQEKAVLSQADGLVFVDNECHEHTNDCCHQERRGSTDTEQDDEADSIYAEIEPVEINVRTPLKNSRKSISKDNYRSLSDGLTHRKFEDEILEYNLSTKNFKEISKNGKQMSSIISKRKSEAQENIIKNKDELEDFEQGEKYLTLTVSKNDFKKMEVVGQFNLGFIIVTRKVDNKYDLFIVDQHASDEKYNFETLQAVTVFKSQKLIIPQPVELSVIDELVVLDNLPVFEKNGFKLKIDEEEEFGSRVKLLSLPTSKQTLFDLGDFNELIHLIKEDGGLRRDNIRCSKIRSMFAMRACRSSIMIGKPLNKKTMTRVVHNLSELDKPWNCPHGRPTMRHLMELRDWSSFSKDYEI

B1: intact 75-mer duplex (dsDNA)
DNA 1: TCGACCTAAGTCTAGCAGGTCACGTCACGCTACCGAATTCTGACTTGCTAGGACATCTTTGCTCACGTTGACCCA
DNA 2: TGGGTCAACGTGAGCAAAGATGTCCTAGCAAGTCAGAATTCGGTAGCGTGACGTGACCTGCTAGACTTAGGTCGA
Consider B1, for which the results for the Kd with Mlh1-Pms1 [1] (blunt) and with Mlh1-Pms1 [2] (blunt) were 96 ± 20 nM and 79 ± 8 nM, respectively.

B2: discontinuous 75-mer duplex (single strand break) (dsDNA)
DNA 1: TCGACCTAAGTCTAGCAGGTCACGTCACGCTACCGAATTCTGACTTGCTAGGACATCTTTGCTCACGTTGACCCA
DNA 2: TGGGTCAACGTGAGCAAAGATGTCCTAGCAAGTCAGA
DNA 3: ATTCGGTAGCGTGACGTGACCTGCTAGACTTAGGTCGA
For B2, the Kd (in general, the constant that tells how readily two partners part at equilibrium) with Mlh1-Pms1 [1] (setting [3]) was 79 ± 3 nM; with Mlh1-Pms1 [2] (setting [3]), 77 ± 6 nM.
